Consider three molecules from paper PMC11514458.

Series [1] addresses T1, BCDX2 complex (human, UniProt O15315;O43502;O75771;O43543 1-384;1-376;1-328;1-280).
T1 sequence 1: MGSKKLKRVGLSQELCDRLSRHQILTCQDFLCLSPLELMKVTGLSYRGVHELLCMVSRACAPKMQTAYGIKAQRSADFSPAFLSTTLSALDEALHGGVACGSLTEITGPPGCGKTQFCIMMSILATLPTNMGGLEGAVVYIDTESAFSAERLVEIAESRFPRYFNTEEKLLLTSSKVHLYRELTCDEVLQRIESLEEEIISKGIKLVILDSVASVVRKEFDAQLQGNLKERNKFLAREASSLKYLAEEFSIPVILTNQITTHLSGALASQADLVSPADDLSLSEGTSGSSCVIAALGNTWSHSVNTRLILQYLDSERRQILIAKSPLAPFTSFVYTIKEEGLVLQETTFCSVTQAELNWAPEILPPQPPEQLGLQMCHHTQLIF
T1 sequence 2: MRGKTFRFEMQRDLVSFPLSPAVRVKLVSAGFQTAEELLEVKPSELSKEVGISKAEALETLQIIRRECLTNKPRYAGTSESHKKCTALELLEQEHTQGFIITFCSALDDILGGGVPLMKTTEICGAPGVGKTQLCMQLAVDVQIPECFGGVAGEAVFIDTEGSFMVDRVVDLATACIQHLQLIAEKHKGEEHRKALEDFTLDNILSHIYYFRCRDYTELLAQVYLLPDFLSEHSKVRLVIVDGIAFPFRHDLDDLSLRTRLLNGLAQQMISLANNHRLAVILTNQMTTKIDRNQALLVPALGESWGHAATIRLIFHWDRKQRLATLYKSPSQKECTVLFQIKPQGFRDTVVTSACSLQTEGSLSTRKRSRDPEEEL
T1 sequence 3: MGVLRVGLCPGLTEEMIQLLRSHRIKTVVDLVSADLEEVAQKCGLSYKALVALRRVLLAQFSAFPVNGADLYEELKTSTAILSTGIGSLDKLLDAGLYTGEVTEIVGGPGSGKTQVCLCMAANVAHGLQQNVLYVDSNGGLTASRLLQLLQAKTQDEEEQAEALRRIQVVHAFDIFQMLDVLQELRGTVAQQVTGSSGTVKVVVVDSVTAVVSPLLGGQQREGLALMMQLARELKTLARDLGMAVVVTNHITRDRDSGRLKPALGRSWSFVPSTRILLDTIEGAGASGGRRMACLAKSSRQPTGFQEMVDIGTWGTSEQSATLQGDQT
T1 sequence 4: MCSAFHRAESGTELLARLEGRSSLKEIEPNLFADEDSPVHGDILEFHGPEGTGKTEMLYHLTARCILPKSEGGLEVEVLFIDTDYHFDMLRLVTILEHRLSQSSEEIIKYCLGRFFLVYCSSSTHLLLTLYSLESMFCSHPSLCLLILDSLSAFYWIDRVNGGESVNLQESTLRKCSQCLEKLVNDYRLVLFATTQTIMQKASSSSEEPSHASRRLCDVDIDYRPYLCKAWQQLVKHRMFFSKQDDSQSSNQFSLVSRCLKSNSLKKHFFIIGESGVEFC
Put plainly: EMSA; stronger than ssDNA; EMSA: 20 mM Tris-HCl pH 7.5, 2 mM MgCl2, 2 mM ATP, 37 C, 20 nM DNA, glutaraldehyde fixation; stopped-flow: 25 mM Tris-HCl pH 7.5, 5 mM MgCl2, 50 mM KCl, 2 mM ATP, 0.5 mM EDTA, 10% glycerol, 37 C; BLI: 50 mM Tris-HCl pH 7.5, 2 mM ATP, 50 mM KCl, 5 mM MgCl2, 0.05% Tween 20, room temperature. The following applies: protein: recombinant; tags: Strep-tag and His-tag (XRCC2 N-terminal His); copies: 1;1;1;1; label: 5' FITC on strand 1; flap 1:2 1:3.

Series [2] concerns the target T1, BCDX2 complex. Put plainly: EMSA; stronger than miniBRCA2; EMSA: 20 mM Tris-HCl pH 7.5, 2 mM MgCl2, 2 mM ATP, 37 C, 20 nM DNA, glutaraldehyde fixation; stopped-flow: 25 mM Tris-HCl pH 7.5, 5 mM MgCl2, 50 mM KCl, 2 mM ATP, 0.5 mM EDTA, 10% glycerol, 37 C; BLI: 50 mM Tris-HCl pH 7.5, 2 mM ATP, 50 mM KCl, 5 mM MgCl2, 0.05% Tween 20, room temperature. The following applies: protein: recombinant; tags: Strep-tag and His-tag (XRCC2 N-terminal His); copies: 1;1;1;1; label: 5' FITC.

B1: 3' flap (mixed)
DNA 1: AGCTACCATGCCTGCACGAATTAAGCAATTCGTAATCATGGTCATAGCT
DNA 2: AGCTATGACCATGATTACGAATTGCTTGGAATCCTGACGAACTGTAG
DNA 3: AATTCGTGCAGGCATGGTAGCT
Take B1: the binding result in the series with BCDX2 complex [1] is recorded as “binds”.
For the molecule CTAAGTTCGTCAGGATTCCAGCATTCTAACAGTCATAGCG (ssDNA) [ssDNA 40mer], the binding result in the series with BCDX2 complex [2] is listed as “binds”.
As to GTACAAAGCTCTGGCATGATACTATGCGGC (ssDNA) [ssDNA 30mer], the binding result with BCDX2 complex [2] is reported as “binds”.
